Source: patent US7384773

Target: recombinant soluble human beta secretase expressed in CHO-K1 cells (Hu_Asp-2LΔTM(His)6), not treated with HIV protease (UniProt P56817)

Substance: HIV-1 protease
- cleavage of the F39-V40 bond (N-terminal sequence analysis): nearly 100% cleavage of the F^39-V^40 bond occurred
